These results are taken from patent US20170190782A1 (ABGENOMICS COOPERATIEF U A, published 2017).

For test [1], the target named is human P-Selectin Glycoprotein Ligand-1 (PSGL-1) (human) (UniProt Q14242). As to the kind of experiment: FACS, inhibition of recombinant human P-selectin binding to activated T cells; competitor P-selectin.
In test [2] the target is T1, human P-Selectin Glycoprotein Ligand-1 (PSGL-1) (human, UniProt Q14242 42-412).
T1 construct: whole, on cells; also called hCD162; human CD162
T1 sequence (looked up): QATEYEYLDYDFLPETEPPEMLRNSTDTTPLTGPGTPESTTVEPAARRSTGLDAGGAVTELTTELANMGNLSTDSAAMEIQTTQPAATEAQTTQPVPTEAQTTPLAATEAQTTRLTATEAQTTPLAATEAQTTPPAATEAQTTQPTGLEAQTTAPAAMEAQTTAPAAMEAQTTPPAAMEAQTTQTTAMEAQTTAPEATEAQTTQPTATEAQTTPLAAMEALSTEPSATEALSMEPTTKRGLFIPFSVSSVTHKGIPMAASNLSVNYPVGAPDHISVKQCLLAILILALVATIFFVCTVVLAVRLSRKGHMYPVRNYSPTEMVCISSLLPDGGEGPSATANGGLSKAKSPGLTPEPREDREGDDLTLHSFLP
As to the kind of experiment: FACS competition against Biotin-labeled mouse 15A7 on CD162-expressing Sp2/0 cells. The method, then: (§1) Sp2/0 transfectants stably expressing human CD162 were used as source of human CD162 antigen. Biotin-labeled mouse 15A7 was used as tracer. Increasing amounts of competitor antibodies (mouse, chimeric, or humanized 15A7) were mixed with 35 ng of Biotin-labeled mouse 15A7 and incubated with 1×10⁵ CD162-expressing Sp2/0 cells for 1.5 hours at 4° C. with constant shaking. After washing, secondary antibody, Streptavidin-PE (Becton Dickinson Immunocytometry System Inc. Cat. No. 349023) was added to the mixture. After incubating for 45 minutes at 4° C., the cells were washed again, resuspended in 300 μl of PBS-1% of FBS, and subjected to FACS analysis.

The target in test [3] is T1, human P-Selectin Glycoprotein Ligand-1 …. As to the kind of experiment: derived from FACS competition against Biotin-labeled mouse 15A7 on CD162-expressing Sp2/0 cells. The method, then:
as §1

Test [4] has the same target. As to the kind of experiment: cell-based or functional assay.
In test [5] the target is T2, E. coli expressed hCD162 fragment 42-80 fused to human immunoglobulin gamma 1 heavy chain constant region (human, UniProt Q14242 42-80).
T2 construct: range 42-80; Expressed in E. coli from pET-32a; junction residues are not spelled out; not shown: human immunoglobulin gamma 1 heavy chain constant region
T2 chain (looked up): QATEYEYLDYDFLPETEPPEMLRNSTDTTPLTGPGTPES
The test can be described thus: sandwich ELISA, fusion protein captured by goat anti-human IgG, antibody at 2 µg/ml. The method, then: (§2) A sandwich ELISA was conducted to study the interaction between the hCD162 fragments and each of 15A7, 9F9, and 43B6. 96-well microtiter plates were coated with goat anti-human IgG (Southern Biotechnology, Cat. No. 2040-01) antibody (2 μg/ml, 50 μl/well) overnight at 4° C. Plates were blocked by incubation with 0.25% of BSA in PBS (150 μl/well) for 1 hour at 37° C. The blocked plates were then incubated with fusion proteins containing various fragments of human CD162 (2 μg/ml) for 2 hours at room temperature. After washing 4 times with PBS containing 0.05% of Tween 20 (PBST), the plates were incubated with testing antibodies (2 μg/ml) for 1.5 hours at room temperature.
(§3) After incubation, the plates were washed 4 times with PBST. 50 μl of 1 to 3000 diluted goat anti-mouse IgG conjugated with alkaline phosphatase (Southern Biotechnology, Cat. No. 1031-04) was then added to each well and the plates were incubated for 1 hour at 37° C. Enzyme reaction was carried out by adding 50 μl of an alkaline phosphatase substrate solution (1 alkaline phosphatase substrate tablet dissolved in 5 ml of substrate buffer containing 0.012 M of Na₂CO₃, 0.16 M of NaHCO₃ and 1 mM of MgCl₂ at pH 8.6), and absorbance at 405 nm was determined.
On the technique in general: An ELISA detects its analyte on a solid surface through an enzyme-linked reagent.

In test [6] the target is T3, E. coli expressed hCD162 fragment 42-119 fused to human immunoglobulin gamma 1 heavy chain constant region (human, UniProt Q14242 42-119).
T3 construct: range 42-119; Expressed in E. coli BL21(DE3) from pET-32a; NdeI/BglII cloning adds a start Met and junction residues that are not spelled out; also called fusion protein covering residues 42-119; not shown: human immunoglobulin gamma 1 heavy chain constant region
T3 sequence (looked up): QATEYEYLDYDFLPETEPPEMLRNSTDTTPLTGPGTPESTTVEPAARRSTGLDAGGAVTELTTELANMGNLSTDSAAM
The test is described as above. The method, then: as §2, §3

Test [7] addresses T4, E. coli expressed hCD162 fragment 42-319 fused to human immunoglobulin gamma 1 heavy chain constant region (human, UniProt Q14242 42-319).
T4 construct: Expressed in E. coli from pET-32a; junction residues are not spelled out; not shown: human immunoglobulin gamma 1 heavy chain constant region
T4 sequence (looked up): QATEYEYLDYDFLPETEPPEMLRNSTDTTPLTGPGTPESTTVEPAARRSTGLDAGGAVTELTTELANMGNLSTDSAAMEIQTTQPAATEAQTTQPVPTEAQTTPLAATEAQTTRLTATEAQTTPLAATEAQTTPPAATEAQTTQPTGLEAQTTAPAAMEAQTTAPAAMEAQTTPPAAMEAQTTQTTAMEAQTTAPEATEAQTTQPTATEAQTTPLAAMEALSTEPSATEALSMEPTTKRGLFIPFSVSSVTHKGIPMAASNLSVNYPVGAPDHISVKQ
The test is described as above. The method, then: as §2, §3

Test [8] addresses T1, human P-Selectin Glycoprotein Ligand-1 …. The test can be described thus: FACS, inhibition of recombinant human P-selectin binding to activated T cells; competitor P-selectin. The method, then:
(§4) Human PBMC were activated with 1% PHA for 2 days and maintained in IL-2-containing medium for 3 days. The cells were incubated with titrated 9F9, 15A7, 43B6, KPL-1 (an PSGL-1 antagonist), or a control antibody (9E10) for 30 minutes, followed by the addition of recombinant human P-selectin (1.25 μg/ml). Binding of P-selectin to activated T cells was measured by anti-P-selectin-FITC analyzed on FACS. Consistent with previous reports, KPL-1 almost completely abolished P-selectin's binding to activate T cells at a low concentration (0.31 μg/ml). 43B6 blocked binding of P-selectin to activated T cells as effectively as KPL-1 did, whereas a higher concentration of 9F9 was required to achieve the same effect. Indeed, 0.08 μg/ml KPL or 43B6 was needed to abolish 50% of the binding. In contrast, 5 μg/ml 9F9 was required.
Background: In flow cytometry, cells or beads pass a laser one at a time.

The target in test [9] is T2, E. coli expressed hCD162 fragment 42-80 …. The test can be described thus: sandwich ELISA, fusion protein captured by goat anti-human IgG. The method, then:
as §2, §3

Test [10] addresses T3, E. coli expressed hCD162 fragment …. Described as above. The method, then:
as §2, §3

The target in test [11] is T1, human P-Selectin Glycoprotein Ligand-1 …. As to the kind of experiment: FACS, inhibition of recombinant human P-selectin binding to activated T cells; competitor P-selectin; the antibody binds PSGL-1 but does not block. The method, then:
as §4

Take KPL-1 anti-hCD162 antibody (PharMingen): in [1], the IC50 (in general, the concentration at which inhibition is half-maximal) is 0.08 µg/mL and the concentration that almost completely abolished P-selectin's binding was 0.31 µg/mL.

B1: humanized 15A7 antibody (antibody, V domains shown)
VH: EVQLVESGGGLVQPGGSLRLSCAASGFTFSSFGMHWVRQAPGKGLEWVAYINGGSSTIFYANAVKGRFTISRDNAKNTLYLQMNSLRAEDTAVYYCARYASYGGGAMDYWGQGTLVTVSS
VL: DIQMTQSPSSLSASVGDRVTITCRSSQSIVHNDGNTYFEWYQQKPGKAPKLLIYKVSNRFSGVPSRFSGSGSGTHFTLTISSLQPEDFATYYCFQGSYVPLTFGQGTKVEIK
notes: V regions were inserted into the pVk and pVg4 vectors (human kappa light chain constant region, human IgG4 heavy chain constant region); also called Hu15A7
B1 showed an IC50 in test [2] of approximately 4.51 µg/mL. Besides, in [3], the Ka is 3.33e+07 M⁻¹.

B2: mouse 43B6 antibody (antibody, V domains shown)
VL: ENVLTQSPAIMSASPGEKVTMTCRASSTVNSTYLHWFQQKSGASPKLWIYGSSNLASGVPARFSGSGSGTSYSLTISSVEAEDAATYYCQQYSGYPLTFGAGTTLELK
VH: EVQLQQSGPDLVKPGALVKISCKASGYSFTAYYIHWVKQSHGKSLEWIGRVNPNTGGTSYNPKFKGKAILNVDKSSSTAYMELRSLTSEDSAVYYCARSGSPYYRYDDWGQGTTLTVSS
notes: Mouse IgG1 from hybridoma m166-43B6; also called m166-43B6; M166-43136
As for B2, the “Percentage of apoptotic T cells (annexin V positive, CD3 gated), Day 0 non-activated human T cells” value (from here on “Percentage … Day 0 non-activated human T cells”) in [4] worked out at 6.57%. In addition, the “Percentage of apoptotic T cells (annexin V positive, CD3 gated), Day 7 in vitro activated human T cells” value (shortened to “Percentage … in vitro activated human T cells”) in test [4] came to 49.4%. The binding result in test [5], in test [6] and in test [7] was “binds” each time. Moreover, the IC50 in test [8] was 0.08 µg/mL.

B3: mouse 9F9 antibody (antibody, V domains shown)
VL: DVLMTQTPLSLPVSLGDQASISCRSSQSIVNSNGNTYLEWYLQKPGQSPKLLIYKVSNRFSGVPDRFSGSGSGTDFTLKISRVEAEDLGVYYCFQGSHVPWTFGGGTKLEIK
VH: EVQLVETGGGLVQPKGSLKLSCAASGFTFNTNAMNWVRQAPGKGLEWVARIRSKSNNYATYYADSVKDRFTISRDDTQSMIYLQMNNLKTEDTGMYYCVRGGSYWYFDVWGAGTTVTVSS
notes: Mouse IgG1 from hybridoma m128-9F9; also called m128-9F9
Take B3: the “Percentage … Day 0 non-activated human T cells” value in [4] was found to be 5.82%. Further, the “Percentage … in vitro activated human T cells” value in test [4] was found to be 28.7%. The binding result in test [5], in test [6] and in [7] was “binds” each time. Moreover, the IC50 in test [8] was 5 µg/mL.

B4: mouse 15A7 antibody (antibody, V domains shown)
VL: DILMTQTPLSLPVSLGDQASISCRSSQSIVHNDGNTYFEWYLQKPGQSPKLLIYKVSNRFSGVPDRFSGSGSGTHFTLNISRVEAEDLGIYYCFQGSYVPLTFGAGTKLELK
VH: DVQLVESGGGLVQPGGSRKLSCAASGFTFSSFGMHWVRQAPEKGLEWVAYINGGSSTIFYANAVKGRFTISRDNPKNTLFLQMTILRSEDTAIYYCGRYASYGGGAMDYWGQGTSVTVSS
notes: Mouse IgG1 from hybridoma m152-15A7; also called m15A7; m152-15A7
Regarding B4, the “Percentage … Day 0 non-activated human T cells” value in [4] was found to be 5.23%. For the same molecule, in test [4], the “Percentage … in vitro activated human T cells” value worked out at 51.7%. Besides, the results for the binding result in test [7], in [9] and in test [10] were “binds”, “no binding (tested: 2 µg/ml)” and “no binding (tested: 2 µg/ml)”, respectively. For the same molecule, the IC50 in test [2] is 3.72 µg/mL; in test [11] it was more than 20 µg/mL. In addition, the Ka in [3] came out at 4.03e+07 M⁻¹.

B5: chimeric 15A7 antibody (antibody, V domains shown)
VH: DVQLVESGGGLVQPGGSRKLSCAASGFTFSSFGMHWVRQAPEKGLEWVAYINGGSSTIFYANAVKGRFTISRDNPKNTLFLQMTILRSEDTAIYYCGRYASYGGGAMDYWGQGTSVTVSS
VL: DILMTQTPLSLPVSLGDQASISCRSSQSIVHNDGNTYFEWYLQKPGQSPKLLIYKVSNRFSGVPDRFSGSGSGTHFTLNISRVEAEDLGIYYCFQGSYVPLTFGAGTKLELK
notes: Mouse 15A7 VL on the human light chain constant region (pVk) and mouse 15A7 VH on the human IgG1, IgG2 or IgG4 heavy chain constant region (pVg1, pVg2, pVg4)
B5 registered an IC50 in test [2] of approximately 5.71 µg/mL. For the same molecule, the Ka in [3] came to 2.62e+07 M⁻¹.
